Results taken from patent US20170050988A1, “DOTAM DERIVATIVES FOR THERAPEUTIC USE” (priority 2013, published 2017).
Converted amounts (≈) assume the structure as drawn. “Also recorded” adds a separate entry of the source. Starred links: 1 amine or outer side, 2 acyl side, 3 side chain; linkers in the order of their positions; H or OH if unused. Positions of bridges follow the written chain, without caps; N, C: chain ends. Non-standard residues stand in square brackets, D forms with d. Residues, ends and D or L forms follow the SMILES beside them. Chains are numbered I, II in the order given. *: point of attachment. X1 = CN1/C(=C/C=C/C=C/C2=[N+](CCCCCC(=O)NCCOCCOCCNC(=O)CN3CCN(CC(=O)NCCOCCOCCN[*:1])CCN(CC(=O)NCCOCCOCCN[*:3])CCN(CC(=O)NCCOCCOCCN[*:2])CC3)c3ccc4ccccc4c3C2(C)C)C(C)(C)c2c1ccc1ccccc21; X4 = CN1/C(=C/C=C/C=C/C2=[N+](CCCCCC(=O)NCCOCCOCCN*)c3ccc4ccccc4c3C2(C)C)C(C)(C)c2c1ccc1ccccc21; Sta = CC(C)C[C@H](N)[C@@H](O)CC(=O)O; Isovaleryl = CC(C)CC(=O)*

Tests used:
in vivo = conditions: male, C57BL/6J, mouse, in vivo
Experimental: (§1) Measurement of In Vivo Half Life of Compounds in Mice
(§2) Male C57 BL/6J mice aged 10 weeks were purchased from Harlan Laboratories (Blackthorn, Bicester, UK). Mice were housed in groups of 6 in individually vented cages, maintained at 21±2° C. on a 12-hour light/dark cycle and with food provided ad libitum. All experimental protocols were performed in compliance with the UK Animals (Scientific Procedures) Act 1986 regulations for the handling and use of laboratory animals (Home Office project license PPL no: 70/7288).
(§3) One hundred nanomoles of each of the compounds were injected into the intra-articular space following induction of anaesthesia by gaseous anaesthetic (2% isofluorane and O2). Planar fluorescence images of the knee joints was captured at the time points indicated by capturing the emission at 700 nm for 1 min after exposure at 630 nm under gaseous anaesthesia (2.5% isofluorane and O2) in a Kodak In Vivo FX Pro (Carestream, Woodbridge, USA). Planar X-ray images were obtained by exposure to X-rays for 20 seconds for co-registration purposes.
(§4) To calculate the half lives of the compounds in the joint, fluorescence images were analysed using the Carestream MI software (version 5.1). Circular regions of interest (ROI) of 25 pixels in diameter were defined to encompass the knee joint, which was defined by co-registration of X-ray images. The mean fluorescence intensity (MFI) of the ROI was obtained. Fluorescence images shown are false coloured using the rainbow spectrum, with purple being the lowest value and red being the highest value, and the range indicated in the figures. […] All statistical analysis was carried out using the Prism Software (Graphpad, La Jolla, USA).
(§5) We further evaluated the binding capacity of the probes to cartilage in vivo using optical imaging. 0.1 μmol of each of the compounds were injected intra-articularly into the knees of mice, and in vivo fluorescent microscopy and X-ray were used to quantify localization and retention. The decay in signal was fitted to a two-phase exponential decay model to describe the rapid clearance of unbound probe from the joint and the slow clearance of bound probe from the cartilage (n=5).

knee joints of mice = experiment: In vivo half life / retention of Cy5.5 probes in mouse knee joints (optical imaging)
Experimental: as §1, §2, §3, §4, §5

[1] = test system: pig articular cartilage explants; experiment: Ex vivo GAG release model with pig articular cartilage explants; type: cell-based; conditions: explants pre-incubated with 1 μM inhibitor 24 h, then washed
Cathepsin D = biological target: T1, Cathepsin D (Homo sapiens, UniProt P07339); experiment: Cathepsin D enzyme assay; type: biochemical; conditions: purified Cathepsin D, pH 4.5, 37° C.; read-out: IC50
T1 construct: purchased Biomol Se-199
Experimental: For quantification of Cathepsin D inhibitory activity, an enzymatic assay was used that measures the turnover of a quenched, fluorescenctly-labeled, Cathepsin D-cleavable, peptide substrate over time.
Specifically, 13 ng of purified Cathepsin D enzyme (Biomol; Cat.No. Se-199) was administered per well of a 96 well plate, substance/inhibitor of interest was added and the mixture incubated for 10 min. at 37° C. Then, the enzymatic reaction was started by addition of fluorescenctly-labeled, Cathepsin D-Substrat ([…] (7-Methoxycoumarin-4-yl)-acetyl-Pro-Leu-Gly-Leu-(3 [2,4-dinitrophenyl]-L-2,3-diaminopropionyl)-Ala-Arg-NH2 (Bachem M-1895). The reaction volume amounts to 30 μl and contains 50 mM acetic acid, 200 mM NaCl and 0.003% Brij 35 and was adjusted to pH 4.5 with acetic acid. By cleavage of the peptide chain, the […] is released and the emission of fluorescence dye is measured using excitation/emission wavelengths ([…]) on a Tecan Spectrafluor Plus—instrument at 37° C. for 10 min. For the determination of the compound dose response, a 10 mM DMSO stock solution was diluted and tested in a ten-point, three-fold dilution series run in duplicate beginning at 30 μM final concentration. Data were analyzed using a four-parameter curve fit with a fixed minimum and maximum experimentally defined as the average positive and negative controls on each plate.

[2] = test system: pig articular cartilage explants; experiment: Ex vivo binding assay with pig articular cartilage explants; conditions: 5 μM probe, 24 h incubation, washed; integrated fluorescence
Experimental: To evaluate the cartilage targeting affinities of these five DOTAM-derived compounds, we performed an ex vivo binding assay of these Cy 5.5-labeled probes with pig articular cartilage explants. In these ex vivo experiments, whole-depth pig articular cartilage blocks were incubated with 5 μM of each probe for 24 h, washed 3 times for 10 min each with PBS buffer at 37° C. to remove non-binding probes, then imaged using fluorescent microscopy. The intensity of the near infrared fluorescent signal from Cy 5.5 presents the relevant amount of these probes remaining in the cartilage.

[3] = Solubility in phosphate buffer; type: physicochemical; conditions: phosphate buffer at pH 7.4
[4] = 100 nmol, First Half Life (h), 100 nmol intra-articular, mouse knee, two phase decay fit of fluorescence, fast half life (t1), loss from the joint space
[5] = 100 nmol, Terminal Half Life (h), 100 nmol intra-articular, mouse knee, two phase decay fit, slower half life (t2, t1/2beta), loss of cartilage-bound compound

T1 sequence (P07339 65-412): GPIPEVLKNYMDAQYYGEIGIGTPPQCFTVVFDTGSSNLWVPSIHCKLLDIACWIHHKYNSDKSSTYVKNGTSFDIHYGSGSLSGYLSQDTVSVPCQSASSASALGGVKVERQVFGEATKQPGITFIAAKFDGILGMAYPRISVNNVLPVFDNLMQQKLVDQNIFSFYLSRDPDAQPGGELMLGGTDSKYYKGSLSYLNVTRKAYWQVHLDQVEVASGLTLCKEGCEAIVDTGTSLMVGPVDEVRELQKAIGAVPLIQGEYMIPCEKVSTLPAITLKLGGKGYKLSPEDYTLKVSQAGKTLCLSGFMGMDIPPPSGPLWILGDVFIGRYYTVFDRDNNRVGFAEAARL

CC(=O)N[C@@H](Cc1ccc(O)cc1)C(=O)N[C@@H](CCCNC(=N)N)C(=O)N[C@@H](CC(C)C)C(=O)NCC(=O)N[C@@H](CCCNC(=N)N)C(=O)N[C@@H](Cc1c[nH]c2ccccc12)C(=O)NCCOCCOCCNC(=O)CCCCC[N+]1=C(/C=C/C=C/C=C2/N(C)c3ccc4ccccc4c3C2(C)C)C(C)(C)c2c1ccc1ccccc21 [HHY-258B, AcYRLGRW-Cy5.5] (Ac-YRLGRW-X4)
half-life (in vivo; First Half Life (h)): 2 h
half-life (in vivo; Terminal Half Life (h)): 35 h

CC(=O)N[C@@H](Cc1c[nH]c2ccccc12)C(=O)N[C@@H](Cc1ccc(O)cc1)C(=O)N[C@@H](CCCNC(=N)N)C(=O)NCC(=O)N[C@@H](CCCNC(=N)N)C(=O)N[C@@H](CC(C)C)C(=O)NCCOCCOCCNC(=O)CCCCC[N+]1=C(/C=C/C=C/C=C2/N(C)c3ccc4ccccc4c3C2(C)C)C(C)(C)c2c1ccc1ccccc21 [HHY-259B, AcWYRGRL-Cy 5.5] (Ac-WYRGRL-X4)
half-life (in vivo; [4]): 2.3 h
half-life (in vivo; [5]): 205 h

CC(=O)N[C@@H](Cc1c[nH]c2ccccc12)C(=O)N[C@@H](Cc1ccc(O)cc1)C(=O)N[C@@H](CCCNC(=N)N)C(=O)NCC(=O)N[C@@H](CCCNC(=N)N)C(=O)N[C@@H](CC(C)C)C(=O)NCCOCCOCCNC(=O)CN1CCN(CC(=O)NCCOCCOCCNC(=O)CCCCC[N+]2=C(/C=C/C=C/C=C3/N(C)c4ccc5ccccc5c4C3(C)C)C(C)(C)c3c2ccc2ccccc32)CCN(CC(=O)NCCOCCOCCNC(=O)[C@H](CC(C)C)NC(=O)[C@H](CCCNC(=N)N)NC(=O)CNC(=O)[C@H](CCCNC(=N)N)NC(=O)[C@H](Cc2ccc(O)cc2)NC(=O)[C@H](Cc2c[nH]c3ccccc23)NC(C)=O)CCN(CC(=O)NCCOCCOCCNC(=O)[C@H](CC(C)C)NC(=O)[C@H](CCCNC(=N)N)NC(=O)CNC(=O)[C@H](CCCNC(=N)N)NC(=O)[C@H](Cc2ccc(O)cc2)NC(=O)[C@H](Cc2c[nH]c3ccccc23)NC(C)=O)CC1 [HHY-290, (AcWYRGRL)3-DOTA-Cy5.5] (I: Ac-WYRGRL / II: Ac-WYRGRL / III: Ac-WYRGRL; linker I:C-II:C-III:C via X1)
retained initial signal (knee joints of mice; 8 days after intra-articular injection, 0.1 μmol, mouse knee): 40%
half-life (in vivo; [4]): 8.9 h
half-life (in vivo; [5]): 1280 h

CC(=O)N[C@@H](Cc1ccc(O)cc1)C(=O)N[C@@H](CCCNC(=N)N)C(=O)N[C@@H](CC(C)C)C(=O)NCC(=O)N[C@@H](CCCNC(=N)N)C(=O)N[C@@H](Cc1c[nH]c2ccccc12)C(=O)NCCOCCOCCNC(=O)CN1CCN(CC(=O)NCCOCCOCCNC(=O)CCCCC[N+]2=C(/C=C/C=C/C=C3/N(C)c4ccc5ccccc5c4C3(C)C)C(C)(C)c3c2ccc2ccccc32)CCN(CC(=O)NCCOCCOCCNC(=O)[C@H](Cc2c[nH]c3ccccc23)NC(=O)[C@H](CCCNC(=N)N)NC(=O)CNC(=O)[C@H](CC(C)C)NC(=O)[C@H](CCCNC(=N)N)NC(=O)[C@H](Cc2ccc(O)cc2)NC(C)=O)CCN(CC(=O)NCCOCCOCCNC(=O)[C@H](Cc2c[nH]c3ccccc23)NC(=O)[C@H](CCCNC(=N)N)NC(=O)CNC(=O)[C@H](CC(C)C)NC(=O)[C@H](CCCNC(=N)N)NC(=O)[C@H](Cc2ccc(O)cc2)NC(C)=O)CC1 [HHY-293, (AcYRLGRW)3-DOTA-Cy5.5] (I: Ac-YRLGRW / II: Ac-YRLGRW / III: Ac-YRLGRW; linker I:C-II:C-III:C via X1)
Terminal Half Life (knee joints of mice; male, C57BL/6J, mouse, in vivo): 18.75 h
half-life (in vivo; First Half Life (h)): 3 h
half-life (in vivo; Terminal Half Life (h)): 19 h

CC(=O)N[C@@H](Cc1c[nH]c2ccccc12)C(=O)N[C@@H](Cc1ccc(O)cc1)C(=O)N[C@@H](CCCNC(=N)N)C(=O)NCC(=O)N[C@@H](CCCNC(=N)N)C(=O)N[C@@H](CC(C)C)C(=O)NCCOCCOCCNC(=O)CN1CCN(CC(=O)NCCOCCOCCNC(=O)C[C@H](O)[C@H](CC(C)C)NC(=O)[C@H](C)NC(=O)C[C@H](O)[C@H](CC(C)C)NC(=O)[C@@H](NC(=O)[C@@H](NC(=O)CC(C)C)C(C)C)C(C)C)CCN(CC(=O)NCCOCCOCCNC(=O)[C@H](CC(C)C)NC(=O)[C@H](CCCNC(=N)N)NC(=O)CNC(=O)[C@H](CCCNC(=N)N)NC(=O)[C@H](Cc2ccc(O)cc2)NC(=O)[C@H](Cc2c[nH]c3ccccc23)NC(C)=O)CCN(CC(=O)NCCOCCOCCNC(=O)[C@H](CC(C)C)NC(=O)[C@H](CCCNC(=N)N)NC(=O)CNC(=O)[C@H](CCCNC(=N)N)NC(=O)[C@H](Cc2ccc(O)cc2)NC(=O)[C@H](Cc2c[nH]c3ccccc23)NC(C)=O)CC1 [HHY-299, (AcWYRGRL)3-DOTA-Pepstatin A]
inhibition of GAG release ([1]; 24 hours after stimulation at pH 5.0): 34%
inhibition of GAG release ([1]; 48 hours after stimulation at pH 5.0): 18%
IC50 (Cathepsin D): 3.3 nM

CC(=O)N[C@@H](Cc1c[nH]c2ccccc12)C(=O)N[C@@H](Cc1ccc(O)cc1)C(=O)N[C@@H](CCCNC(=N)N)C(=O)NCC(=O)N[C@@H](CCCNC(=N)N)C(=O)N[C@@H](CC(C)C)C(=O)NCCOCCOCCNC(=O)CN1CCN(CC(=O)NCCOCCOCCN)CCN(CC(=O)NCCOCCOCCN)CCN(CC(=O)NCCOCCOCCNC(=O)CCCCC[N+]2=C(/C=C/C=C/C=C3/N(C)c4ccc5ccccc5c4C3(C)C)C(C)(C)c3c2ccc2ccccc32)CC1 [HHY-312, AcWYRGRL-DOTA-Cy5.5]
Terminal Half Life (knee joints of mice; male, C57BL/6J, mouse, in vivo): 210.7 h
half-life (in vivo; First Half Life (h)): 4 h
half-life (in vivo; Terminal Half Life (h)): 210 h
fold mean increase of probe accumulation in cartilage vs non-targeted HHY-306 [2]: 11.2 fold
fold mean increase of probe accumulation in cartilage vs scrambled HHY-322 [2]: 6.0 fold

CC(=O)N[C@@H](Cc1ccc(O)cc1)C(=O)N[C@@H](CCCNC(=N)N)C(=O)N[C@@H](CC(C)C)C(=O)NCC(=O)N[C@@H](CCCNC(=N)N)C(=O)N[C@@H](Cc1c[nH]c2ccccc12)C(=O)NCCOCCOCCNC(=O)CN1CCN(CC(=O)NCCOCCOCN)CCN(CC(=O)NCCOCCOCCN)CCN(CC(=O)NCCOCCOCCNC(=O)CCCCCN2c3ccc4ccccc4c3C(C)(C)C2/C=C/C=C/C=C2/N(C)c3ccc4ccccc4c3C2(C)C)CC1 (some centres unmarked) [HHY-322, AcYRLGRW-DOTA-Cy5.5]
Terminal Half Life (knee joints of mice; male, C57BL/6J, mouse, in vivo): 12.5 h
half-life (in vivo; First Half Life (h)): 1.67 h
half-life (in vivo; Terminal Half Life (h)): 13 h

CC(C)CC(=O)N[C@H](C(=O)N[C@H](C(=O)N[C@@H](CC(C)C)[C@@H](O)CC(=O)N[C@@H](C)C(=O)N[C@@H](CC(C)C)[C@@H](O)CC(=O)NCCOCCOCCNC(=O)CN1CCN(CC(=O)NCCOCCOCCN)CCN(CC(=O)NCCOCCOCCN)CCN(CC(=O)NCCOCCOCCN)CC1)C(C)C)C(C)C [HHY-325]
IC50 (Cathepsin D): 2.9 nM

CC(C)CC(=O)N[C@H](C(=O)N[C@H](C(=O)N[C@@H](CC(C)C)[C@@H](O)CC(=O)N[C@@H](C)C(=O)N[C@@H](CC(C)C)[C@@H](O)CC(=O)O)C(C)C)C(C)C [Pepstatin A, reference compound] (Isovaleryl-VV[Sta]A[Sta]-OH)
effect on acid-stimulated GAG release / degradation (FIG. 3) ([1]; pH 5.0): no effect at all; also recorded: not effective
solubility [3]: 0.82 mg/mL (≈ 1200 µM)

AcNH-DOTA-Cy 5.5 [HHY-306]
First Half Life (knee joints of mice; mouse, in vivo): 0.5 h
Terminal Half Life (knee joints of mice; mouse, in vivo): 9.8 h
